A short description of the series: soluble on expression in E. coli; label from the status in PepcDB or PDB records.
Turning to “MGSDKIHHHHHHMKVIIEADGGSRGNPGIAGSGTLIYNADRSQVLKEYSYVVGKATNNVAEYHGLLNGLRGAAELGATEVSVRMDSKLVVEQMSGRWKIKHPDMKELALECKKVASSIGSVSYEWIPRSENSHADALANKAMDALAEGAAVGFLELEEPAAKTDSEEKVVETATSPAVWNGATTQATRFVLLRHGQTAMSAARQYSGRSNPELTSVGLEQARRAAAFIGRRGGIDAIVASPLQRCQQTAHEVSEQLGGMPVRTIDGLIEMDFGQWDGLSFSQAHEADPELHSAWLDDSRTAPPGGESLQQVHRRVKKVREELERKYAGKTIVVVSHVTPIKSILRQALDASASMFHRMHLDLASISVAEFYSDGPTCVRSVNDTHYLYG”, the “soluble on expression in E. coli” value is “not soluble”.

As to “MSLAIQPLAYRMRPKALDEIVGQTHLVGKDKIIYRMVKAKQLSSMILYGPPGIGKTSIASAIAGSTKYAFRTLNAVTNNKKDMEVVAAEAKMSGTVILLLDEVHRLDKAKQDFLLPLLESGAIILIGATTSNPYIAINPAIRSRTQIFELKPLTVEDIMITMDRALSDKERGLGNYDVEIDEVAKKHFATASNGDVRSALNALELAVISSEPNEDGVIHITLDVAEECLQKKSLAHDKDGDAHYDVLSAFQKSVRGSDVNAALHYMGRLIEAGDLVSISRRMLVMAYEDIGLASPQAGAHTLAAIQTAEKVGFPEARIPLANAVIELCLSPKSNSAIMAIDAALADIRQGKSGEVPDHLRDGHYSGAEKLGRAIDYKYPHNYDNAWVDQQYLPDRLKNKLYYAPKFTSKFEQTIAGVYQKINENKAKKEGHHHHHH”, the “soluble on expression in E. coli” value is given as “soluble”.

“MAQINFEGLRELHDCVNYLLHHCPKTRESLSQQGQEKWTEQVSEASLRMLDICNVSKDVMTLVKHSLQDLQLTLRGNESSDVNEKIAAYNRYKNKLKKETLKCLNCLKNMKGNEGRVAMPIEQNLLFVTEVLKEVRRVVVTMVESLFSLGCIPWLEKRSSKGSLSSIFSIRSSYLLDDEWDETAVQSATTRLEAAEITVVELEIELESIFRRLIQTRVSLLNILTN”: the “soluble on expression in E. coli” value is listed as “soluble”.

Consider “MEVKAFLERETLDRTLGVRYLKAEKDEVVAELVVTPKVHQPFGFLHGGATVALAESVASVGGFLNCPPGHAAFGLEINCNHLRKKREGTIRAVGRPLHVGRTTQVWEVKVYDEEGRLVAASRCTLAVVPLEPAKEPA”, for which the “soluble on expression in E. coli” value is listed as “soluble”.

With “GPGSMSIHQTKVCSVNEPLSNPDDSALEYCVEAQSPVNRTTSTWEFRSKLFPHAFAAVLDTDLSESETTQRELAEWTRKRCRNYERQGDILRSQLGVLVSSGAANGKRSDADDGDDEAFLVGLGEWSLQESSSQYLNSAKKKKCHRQLRCKDSYESALLLERQWSERHAVSLKHSCMKGAHPTPAAQNFELGCAKDLCRDASSVEIHSITPAASVVAAEKTRSVTACEPPTEQERKKNRGVASEHEGTQNFAEHLVVQYFIPDGSEAESGKSSNDTRGGACGRGLYSMPLSVFRYHYPQLLLDFLLQHSVVMESS”, the “soluble on expression in E. coli” value is recorded as “not soluble”.

Regarding “GELMPPQLQNGLNLSAKVVQGSLDSLPQAVREFLENNAELCQPDHIHICDGSEEENGRLLGQMEEEGILRRLKKYDNCWLALTDPRDVARIESKTVIVTQEQRDTVPIPKTGLSQLGRWMSEEDFEKAFNARFPGCMKGRTMYVIPFSMGPLGSPLSKIGIELTDSPYVVASMRIMTRMGTPVLEALGDGEFVKCLHSVGCPLPLQKPLVNNWPCNPELTLIAHLPDRREIISFGSGYGGNSLLGKKCFALRMASRLAKEEGWLAEHMLVLGITNPEGEKKYLAAAFPSACGKTNLAMMNPSLPGWKVECVGDDIAWMKFDAQGHLRAINPENGFFGVAPGTSVKTNPNAIKTIQKNTIFTNVAETSDGGVYWEGIDEPLASGVTITSWKNKEWSSEDGEPCAHPNSRFCTPASQCPIIDAAWESPEGVPIEGIIFGGRRPAGVPLVYEALSWQHGVFVGAAMRSEATAAAEHKGKIIMHDPFAMRPFFGYNFGKYLAHWLSMAQHPAAKLPKIFHVNWFRKDKEGKFLWPGFGENSRVLEWMFNRIDGKASTKLTPIGYIPKEDALNLKGLGHINMMELFSISKEFWDKEVEDIEKYLVDQVNADLPCEIEREILALKQRISQM”, the “soluble on expression in E. coli” value was “soluble”.

For “AIAWNKKNEEKEDFGIIVILWKQVTVKEDGKVPLEPFLTAAKEVLRVVDAFGSGFRIVKNDIAGNIKKLYRANQTVHAETLQELIIAENSPDGLATVALLWLKRAFQFIASFLRRLVVTDKSLEQCVTEAYNCTLRPCHSAVIQKVFWGGVKLAPSRERFYRKLHPDLNIAKAKIEEFLIELHDPLCCIVQFFFQRELEDQCWGDEVYQRKDSSEWLKVSCEQDSV”, the “soluble on expression in E. coli” value is listed as “soluble”.

For the sequence “MVIRMAYSELYWQKEEVMPKKELEELQLKRLRWVVRHAYENVAHYRRKLKEAGVHPDDIKKREDIAKIPFTTKKDFAENYPFGLFAVPKEEIVRLHTSSGTTGKPKVVGYTANDLENWINLVARCLYMVGVRKHDIFQNMANYAFFTGGLGIHDGAERIGAMVIPAGVGNTERQVRCMADFGTTAIHSTPSYALHVKEVAEELGVDDKLSLRIGCFGAEPWSENTRKRLEDAFNIKAFDSYGLSEMNGPGVAFECEEQHGLHIWADHYFIEIIDPQTGEPLSEGEKGELVLTPLTKEALPVLRYRTGDITYIMDDECSCGRTHPKIHRILGRSDDMIIVRGINVFPSQIEHVLMQIPEVGDHFQVVITRNGTLDEITVRVEVRDELFTGELFDLQRLQQKVQRELQKELGLRTNVELVEKGTIERSKGKAKRVLDLREEL”, the “soluble on expression in E. coli” value was “not soluble”.

Take “MRGGSSLDSFPGKGTLHTLEIENFKSYKGKHTIGPFTRFTAIIGPNGSGKSNLMDAISFVLGEKPSSLRVRKYADLIHGAPINKPVAKKCRVTMNYKYSDGKVKAFTRGVNNGTSEHLLDGQTVTSAAYSQEMESINIFIKARNFLVYQGAIENIAMKTPKERTQLFEELSRSHEFQAEYERLKVEMTKAEDDTQHNMNKRRGIAQEKREAKMEKDEAEKYQTMKNELAAKSTMLFLHQLFHCERTIDESKEEINAQKKTIASLEATRSKEEAKIAAVHQEHRKALREVQKMTRKLDQKETDLAEKQQNMLTLKVSVAHEHKKLEIAKKMLAAAESKAENNSTQLADLKKSKKELEKKKAAYEAEIQDMMQRGELNLSDEQVREYGQLKDQAQRESAMVQRELLMAEQVFEGDKSSLNHELRRQKEHQERVKAKEGDVRRIETQIATLAQRIKETEEETKILKADLKKIENDVVIDKSAAAEYNKELVAVVRQLSEASGDSAEGERNQRRTEALEGLKKNFPESVYGRLVDLCQPSHKRFNIATTKILQKHMNSIVCDTEETAAKAIVYLKDHRYPPETFLPNDALVVNPLNEKLREIKKPAGVKLVFDVINPQHQAARKALQFVCGNALVCESQEDAKQLAYGGGELKDRFKAVSMDGTLFQQSGVMSGGSADLRQKSKKWDEKVVKQLREKRNQLNEKIADLQKHRRRELEVESVRSKINGNEQRLAMMKRDLKNMREMQLERLQNELEGMTAEMNMLPPRISNCQEKLERSESTLKSLQTKSNEVADRIFADFCTRVGIASIRDYENREMRIKQEMEDKLRSFDDDIQKLAYEIDFVTEQDGNRKVEVEKEKVSQIDRQYKDMKKKEKTAAAALKEHTESMEQDKEVLEEKKALSHKLETEWNEVKKIAQVAMKDFTKAEKELLRLESLLTKKQYERHSLLHSVKLGQIALPLKSGSMADVEYEEDDGDIYFIIFVSLFPFKFQLISDDTASQSSQSATDGPSVSEEQIQREQHIKINYDSLPREYKDVDDDDGVRQMSNRLNVEIDELQKNVSKMNAPNLKANQRMAEVKEREAESTEELENARKKAKRIRQQFEKVKTDRYRRFQDFFDPVANTIDDIYKQLSRNTSAQAFLGADNMEEPYLDGIQYNCVAPGKRFRPMDNLSGGEKTIAALALLFAVHGRNPAPFFVLDEIDAALDNTNIGKVASYICESAREHMQIIVISLKEEFYNKADSLIGIFPYPAACTTSGVLTFDLTRFKQIGLNEMTENPPTPSIAT”: the “soluble on expression in E. coli” value is “not soluble”.

As for “EFNDKYPDINIDMELDNRFVDIVNERFDLAIRTGMLPDSSLIARKLVDANWVVCASPKYLAKHGIPKQPIELTKHNCLVYSYQETGAREWAFKAGDKMYQVTVDGNLCTNNSSALRN”, the “soluble on expression in E. coli” value was “not soluble”.

In the case of “MSLQPNDITFFQRFQNDILAGRKTITIRDASESHFKAGDVLRVGRFEDDGYFCTIEVTGTSTVTLDTLNEKHAQQENMSLDELKRVIAEIYPNQTQFYVIDFKCLEGHHHHHH”, the “soluble on expression in E. coli” value is recorded as “soluble”.

Values taken from the DeepSol protein solubility set.
